Data reported in patent US20210363269A1 (ALX ONCOLOGY, published 2021).
Positions count from the first letter of the chain named. One block for each binder: values may come before it.

Tests used:
human SIRP-α v1 [1] = target: T1, human SIRP-α v1 (human, UniProt P78324 31-149); assay: SPR
T1 construct: also called Human v1; Human V1
Method in brief: (§1)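 Runs took place at 25° C in PBS pH 7.4 containing 0.01% Tween-20 on a ProteOn XPR36 biosensor, with purified antibodies either amine-coupled to a GLC chip or captured through biotinylated Protein A on an NLC chip. SIRP analytes went in by one-shot kinetic injection at nominal concentrations based on A280 absorbance. Apparent rate constants came from a global simple Langmuir fit of double-referenced data, and KD was calculated as kd/ka.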

human SIRP-α v2 [2] = target: T2, human SIRP-α v2 (human); assay: SPR
T2 construct: also called Human v2; Human V2
T2 sequence (chain, as listed by the source limits assumed): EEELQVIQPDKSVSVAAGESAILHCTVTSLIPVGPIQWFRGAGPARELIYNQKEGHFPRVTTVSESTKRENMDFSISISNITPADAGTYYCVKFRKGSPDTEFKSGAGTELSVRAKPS
Method in brief: as §1

mouse 129 SIRP-α = target: T3, mouse 129 SIRP-α (mouse (129 strain), UniProt P97797 32-150); assay: SPR Koff +/-
T3 construct: also called m129
T3 chain: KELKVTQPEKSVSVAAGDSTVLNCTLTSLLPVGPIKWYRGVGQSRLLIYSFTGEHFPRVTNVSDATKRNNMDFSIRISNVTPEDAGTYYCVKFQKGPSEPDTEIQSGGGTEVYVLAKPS
Method in brief: as §1

human SIRPγ isoform 1 [3] = target: T4, human SIRPγ isoform 1 (human, UniProt Q9P1W8 29-147); assay: SPR Koff +/-
T4 construct: also called Gamma; Human SIRPg
T4 sequence (Q9P1W8 29-147 limits assumed): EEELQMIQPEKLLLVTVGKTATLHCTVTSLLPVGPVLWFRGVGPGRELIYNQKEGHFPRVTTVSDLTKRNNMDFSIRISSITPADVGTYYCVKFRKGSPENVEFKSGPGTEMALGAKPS
Method in brief: as §1

cynomolgus SIRP-α [4] = target: T5, cynomolgus SIRP-α (cynomolgus monkey, UniProt Q5TFQ8 30-148 (human entry), limits assumed); assay: SPR Koff +/-
T5 construct: also called cyno1
T5 chain: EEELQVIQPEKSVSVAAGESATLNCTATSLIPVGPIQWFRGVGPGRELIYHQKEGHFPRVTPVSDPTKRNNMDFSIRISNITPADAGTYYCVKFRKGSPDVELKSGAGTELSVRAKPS
Method in brief: as §1

human SIRPβ isoform 1 = target: T6, human SIRPβ isoform 1 (human, UniProt O00241 30-148); assay: SPR Koff +/-
T6 construct: also called Beta; Human SIRPb
T6 sequence (O00241 30-148 limits assumed): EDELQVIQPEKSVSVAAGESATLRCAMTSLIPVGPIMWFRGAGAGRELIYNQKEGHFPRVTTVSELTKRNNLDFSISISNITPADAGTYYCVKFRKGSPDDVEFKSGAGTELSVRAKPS
Method in brief: as §1

human SIRP-α v1 [5] = target: T1, human SIRP-α v1; assay: SPR, antibody on GLC chip
Method in brief: (§2)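 Antibodies purified with Protein A were amine-coupled (~1000 RU) to a ProteOn XPR36 GLC chip, and SIRP analytes were injected one-shot at 100, 33, 11, 3.7, 1.2 and 0 nM in PBS pH 7.4 with 0.01% Tween-20 at 25° C. Each run used 90 s association at 100 μL/min followed by 1200 s dissociation. KD was derived as kd/ka from a global Langmuir fit to double-referenced sensorgrams.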

human SIRP-α v2 [6] = target: T2, human SIRP-α v2; assay: SPR, antibody on GLC chip
Method in brief: as §2

cynomolgus SIRP-α [7] = target: T5, cynomolgus SIRP-α; assay: SPR, antibody on GLC chip
Method in brief: as §2

NOD mouse SIRP-α = target: T7, NOD mouse SIRP-α (mouse (NOD strain)); assay: SPR, antibody on GLC chip
T7 chain: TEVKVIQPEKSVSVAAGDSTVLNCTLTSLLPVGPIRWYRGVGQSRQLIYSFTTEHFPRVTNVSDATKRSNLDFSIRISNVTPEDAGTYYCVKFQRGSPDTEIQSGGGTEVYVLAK
Method in brief: as §2

BL6 mouse SIRP-α = target: T8, BL6 mouse SIRP-α (mouse (C57BL/6 strain), UniProt P97797 32-148); assay: SPR, antibody on GLC chip
T8 construct: also called C57BL/6
T8 sequence: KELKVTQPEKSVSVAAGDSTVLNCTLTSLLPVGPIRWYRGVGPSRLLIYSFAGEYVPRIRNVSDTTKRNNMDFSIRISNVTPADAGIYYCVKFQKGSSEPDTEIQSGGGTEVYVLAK
Method in brief: as §2

BALBc mouse SIRP-α = target: T9, BALBc mouse SIRP-α (mouse (BALB/c strain)); assay: SPR, antibody on GLC chip
T9 chain: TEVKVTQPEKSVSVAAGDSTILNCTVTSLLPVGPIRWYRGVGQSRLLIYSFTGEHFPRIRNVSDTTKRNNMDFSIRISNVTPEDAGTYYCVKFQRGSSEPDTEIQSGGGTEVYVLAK
Method in brief: as §2

human SIRPγ isoform 1 [8] = target: T4, human SIRPγ isoform 1; assay: SPR, antibody on GLC chip
Method in brief: as §2

T1 sequence (P78324 31-149 limits assumed): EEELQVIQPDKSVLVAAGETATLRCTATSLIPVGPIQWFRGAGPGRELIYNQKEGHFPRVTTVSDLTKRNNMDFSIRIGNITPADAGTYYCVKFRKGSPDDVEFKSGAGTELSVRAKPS

B4: antibody 115 (antibody, V domains shown)
VH: DVQLVESGGGVVRPGESLRLSCAASGFSFSSYAMNWVRQAPGEGLEWVSRINSGGGGTDYAESVKGRFTISRDNSENTLYLQMNSLRAEDTAVYYCAKQYDWNSFFDYWGLGALVTVSS
VL: ETVLTQSPATLSVSPGERATLSCRASQTVGSKLAWHQQKPGQAPRLLIYDATNRATGISDRFSGSGSGTDFTLTISSLQTEDSAVYYCQQYYYWPPYRFGGGTKVEIK
notes: also called S115
Kd (human SIRP-α v1 [1]): 0.0177 nM
Kd (human SIRP-α v2 [2]): 0.015 nM
binding result (cynomolgus SIRP-α [4]): binds
binding result (mouse 129 SIRP-α): no binding
binding result (human SIRPβ isoform 1): binds
binding result (human SIRPγ isoform 1 [3]): binds

B5: antibody 117 (antibody, V domains shown)
VH: VQLVESGGGVVRPGESLRLSCAASGFSFSSYAMNWVRQAPGEGLEWVSRINSGGGGTDYAESVKGRFTISRDNSENTLYLQMNSLRAEDTAVYYCAKQYDWNGFFDYWGLGALVTVSS
VL: B4 VL with S59P
notes: also called S117
Kd (human SIRP-α v1 [1]): 0.0312 nM
binding result (cynomolgus SIRP-α [4]): binds
binding result (mouse 129 SIRP-α): no binding
binding result (human SIRPβ isoform 1): binds
binding result (human SIRPγ isoform 1 [3]): binds

B6: antibody 116 (antibody, V domains shown)
VH: B5 VH with G103S
VL: B4 VL with G66R
notes: also called S116
Kd (human SIRP-α v1 [1]): 0.11 nM
Kd (human SIRP-α v2 [2]): 0.299 nM
binding result (cynomolgus SIRP-α [4]): binds
binding result (mouse 129 SIRP-α): no binding
binding result (human SIRPβ isoform 1): binds
binding result (human SIRPγ isoform 1 [3]): binds

B7: antibody 118 (antibody, V domains shown)
VH: B5 VH
VL: B4 VL with T52S, N53R, S59P
notes: also called S118
Kd (human SIRP-α v1 [1]): 0.0403 nM
binding result (cynomolgus SIRP-α [4]): binds
binding result (mouse 129 SIRP-α): no binding
binding result (human SIRPβ isoform 1): binds
binding result (human SIRPγ isoform 1 [3]): binds

B8: antibody 119 variant, light chain Mut / heavy chain wt (antibody, V domains shown)
VH: DVQLLESGGGVVQPGGSLRLSCAASGFSFSNFAMTWVRQAPGEGLEWVSTIGSGDTYYADSVKGRFTISRDNSKNTLYLQMNSLRAEDTAVYYCAKDSTVSWSGDFFDYWGLGTLVTVSS
VL: EIVLTQSPATLSVSPGERATLSCRASQNVKNDLAWYQQKPGQAPRLLIYAARIRETGIPARFSGSGSGTEFTLTISSLQSEDFAVYYCQQYYDWPPFTFGGGTKVEIK
Kd (human SIRP-α v1 [5]): 0.214 nM
Kd (human SIRP-α v2 [6]): 0.0864 nM
Kd (cynomolgus SIRP-α [7]): 0.138 nM
binding result (NOD mouse SIRP-α): no binding
binding result (BL6 mouse SIRP-α): no binding
binding result (BALBc mouse SIRP-α): no binding
Kd (human SIRPγ isoform 1 [8]): 0.233 nM

B9: antibody 119 variant, light chain wt / heavy chain Mut (antibody, human IgG1, V domains shown)
VH: B8 VH with D1E, M34V, E43K, L112Q
VL: B8 VL with L21F, K39R, A60E, S76T
Kd (human SIRP-α v1 [5]): 0.254 nM
Kd (human SIRP-α v2 [6]): 0.0694 nM
Kd (cynomolgus SIRP-α [7]): 0.155 nM
binding result (NOD mouse SIRP-α): no binding
binding result (BL6 mouse SIRP-α): no binding
binding result (BALBc mouse SIRP-α): no binding

B10: antibody 122 (antibody, V domains shown)
VH: VQLVESGGGVVRPGESLRLSCAASGFRFSNFAMTWVRQAPGEGLEWVSTIGSGDTYYADSVKGRFTISRDNSKNTLYLQMNSLRAEDTAVYYCAKDSTVSWSGDFFDYWGLGTLVTVSS
VL: B8 VL with L21F, K39R, A60E, S76T
notes: also called S122
Kd (human SIRP-α v1 [1]): 0.214 nM
Kd (human SIRP-α v2 [2]): 0.0778 nM
binding result (cynomolgus SIRP-α [4]): binds
binding result (mouse 129 SIRP-α): no binding
binding result (human SIRPβ isoform 1): binds
binding result (human SIRPγ isoform 1 [3]): binds

B11: antibody 135 variant, light chain Mut / heavy chain wt (antibody, V domains shown)
VH: B8 VH with L5V, Q13R, G16E, N31I, F32Y, T35S, S53A, G54D, S101G
VL: B8 VL with A19V, K30R, N31S, L33I, R52S, I53S, E55D, E70D, A84G
Kd (human SIRP-α v1 [5]): 0.149 nM
Kd (human SIRP-α v2 [6]): 0.0266 nM
Kd (cynomolgus SIRP-α [7]): 0.102 nM
binding result (NOD mouse SIRP-α): no binding
binding result (BL6 mouse SIRP-α): no binding
binding result (BALBc mouse SIRP-α): no binding
Kd (human SIRPγ isoform 1 [8]): 0.522 nM

B12: antibody 135 variant, light chain wt / heavy chain Mut (antibody, V domains shown)
VH: EVQLVESGGGVVQPGGSLRLSCAASGFSFSIYAVSWVRQAPGKGLEWVSTIGADDTYYADSVKGRFTISRDNSKNTLYLQMNSLRAEDTAVYYCAKDSTVGWSGDFFDYWGQGTLVTVSS
VL: EIVLTQSPATLSVSPGERVTFSCRASQNVRSDIAWYQQKPGQAPRLLIYAASSRDTGIPDRFSGSGSGTDFTLTISSLQSEDFGVYYCQQYYDWPPFTFGGGTKVEIK
Kd (human SIRP-α v1 [5]): 0.184 nM
Kd (human SIRP-α v2 [6]): 0.0197 nM
Kd (cynomolgus SIRP-α [7]): 0.125 nM
binding result (NOD mouse SIRP-α): no binding
binding result (BL6 mouse SIRP-α): no binding
binding result (BALBc mouse SIRP-α): no binding
Kd (human SIRPγ isoform 1 [8]): 0.779 nM

B13: antibody 173 (antibody, V domains shown)
VH: DVQLVESGGGVVRPGESLRLSCAASGFAFSDHDMSWVRQGPGEGLEWVAGISLRGGVTWYADSVKGRFTISRDNSKNTLYLRLFSLRTEDTAIYYCARESWNTFFDYWGLGTLVTVSS
VL: EIVLTQSPGTLSLSPGETATLSCRASQNVRSNLAWYQQKPGQAPRLLIYDASSRATGIPDRFSGSGSGTDFTLTISSLQSEDFAVYYCQQYGNGPPLTFGGGTKVEIK
notes: also called S173
Kd (human SIRP-α v1 [1]): 0.937 nM
Kd (human SIRP-α v2 [2]): 9.28 nM
binding result (cynomolgus SIRP-α [4]): no binding
binding result (mouse 129 SIRP-α): no binding
binding result (human SIRPβ isoform 1): no binding
binding result (human SIRPγ isoform 1 [3]): no binding

Second part, the binder after the results:

Kd (human SIRP-α v1 [1]): 0.873 nM
Kd (human SIRP-α v2 [2]): 0.238 nM
binding result (mouse 129 SIRP-α): no binding
binding result (human SIRPγ isoform 1 [3]): no binding
B1: antibody 149 (antibody, V domains shown)
VH: DVQLVESGGGVVRPGESLRLSCAASGFTFSNFAMNWVRQAPGEGLEWVSLISVTATTYYADSVKGRFTISRDNSKNTLYLQMNSLRAEDTAVYYCAKVTWNNLFDYWGLGTLVTVSS
VL: EIVLTQSPGTLSLSPGERATLSCRASQPIDSYLAWYQQKPGQAPRLLIYNTVTRATGIPDRFSGSGSGTDFTLTINRLEPEDFAVYYCQHQYDWPPYIFGGGTKVEIK
notes: also called S149

Kd (human SIRP-α v1 [1]): 1.03 nM
Kd (human SIRP-α v2 [2]): 0.127 nM
binding result (mouse 129 SIRP-α): no binding
binding result (human SIRPγ isoform 1 [3]): no binding
B2: antibody 161 (antibody, V domains shown)
VH: B1 VH with N35T, E43K, L45P, I51V, N76S, V98I
VL: EIVLTQSPGTLSLSPGERATLSCRASQTVGSKLAWYQQKPGQAPRLLIYDSSSRASGIPDRFSGSGSGTDFTLTISSLQSEDSAVYYCQQHNDWPPYTFGGGTKVEIK
notes: also called S161

Kd (human SIRP-α v1 [1]): 0.774 nM
Kd (human SIRP-α v2 [2]): 3.14 nM
binding result (cynomolgus SIRP-α [4]): binds
binding result (mouse 129 SIRP-α): binds
binding result (human SIRPβ isoform 1): binds
B3: antibody 137 (antibody, V domains shown)
VH: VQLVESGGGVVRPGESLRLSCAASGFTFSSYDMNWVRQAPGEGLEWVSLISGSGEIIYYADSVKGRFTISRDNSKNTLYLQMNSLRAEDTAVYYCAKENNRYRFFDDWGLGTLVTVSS
VL: ETVLTQSPGTLTLSPGERATLTCRASQSVYTYLAWYQEKPGQAPRLLIYGASSRATGIPDRFSGSGSGTVFTLTISSLQSEDFAVYYCQQYYDRPPLTFGGGTKVEIK
notes: also called S137

binding result (cynomolgus SIRP-α [4]): no binding
binding result (mouse 129 SIRP-α): no binding
binding result (human SIRPβ isoform 1): no binding
binding result (human SIRPγ isoform 1 [3]): no binding
B14: antibody 174 (antibody, V domains shown)
VH: B13 VH with A28T
VL: B13 VL
notes: also called S174

Kd (human SIRP-α v1 [1]): 0.171 nM
Kd (human SIRP-α v2 [2]): 5.01 nM
binding result (cynomolgus SIRP-α [4]): no binding
binding result (human SIRPγ isoform 1 [3]): no binding
B15: antibody 209 (antibody, V domains shown)
VH: DVQLVESGGAVVRPGESLRLSCKASGFTFTNFAMSWVRQAPGEGLEWVSGISGSDDTTYYADSVKGRFTISRDNSESTLYLQMNSLRAEDTAVYYCVKDSTVSWNTFFDYWGLGTLVTVSS
VL: ALTQPASVSANLGGTVKITCSGGYGSDDGSSSYYGWYQQKSPGSAPVILIYWDDKRPSDIPSRFSGSTSGSTTTLTITGVQAEDEAVYFCGTYDTSSGAIFGAGTTLTVL
notes: also called S209
